# From the supplement of paper PMC11780869
# System: Bacillus subtilis
# Assay: cleaved RNA product abundance (RNA/gDNA barcode ratio) relative to median wild-type variant (ratio to wild type); higher = more accumulation of the downstream cleavage product
# Conditions: cleavage site: cggR-gapA (positions -7 to +36 mutated)
# Procedure, shortened: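 Oligos with a 9% error rate were used to build barcoded, mutagenized RNase Y cleavage-site windows within truncated aprE or tetM reporter mRNAs, which were integrated into the B. subtilis chromosome. Cultures were grown in LB at 37°C between OD600 0.0003 and 0.3. Cleaved RNA was gel-selected, reverse transcribed and barcode-sequenced, as were genomic DNA barcodes, and UMIs were collapsed. Cleaved product abundance is the scaled RNA:gDNA barcode ratio, with the median construct carrying the unmutated site as reference.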
# [1] = experiment (reporter, strain, medium): exp 4a: truncated aprE reporter, strain BJT201 with 2% xylose (RNase J1 expressed)
# [2] = experiment (reporter, strain, medium): exp 2b: truncated aprE reporter, strain BJT200
# [3] = experiment (reporter, strain, medium): exp 6: tetM reporter, strain 168
Sequence,cleaved RNA product abundance [1],cleaved RNA product abundance [2],cleaved RNA product abundance [3]
ACAGACGAAGGAGCCGCAAAGAAGTTATTAAAGAATGAATAATACCTCAATATAAATATCTCTCACTTATTTAAA,0.159,,
ACAGACGAAGGAGCCGCAAAGAAGTTATTAAAGAATGAATAATCCCTCAATATAAATATCTCTCACTTATTTAAA,0.114,0.0737,
ACAGACGAAGGAGCCGCAAAGAAGTTATTAAAGCATGAATAATCCCTCAATATAAATATCTCTCACTTATTTAAA,0.11,0.119,
ACAGACGAAGGAGCCGCAAAGAAGTTATTAAAGCATTAATAATCCCTCAATATAAATATCTCTCACTTATTTAAA,0.134,,
ACAGACGAAGGAGCCGCAAAGAAGTTATTAAAGGAAGAATAATCCCTCAATATAAATATCTCTCACTTATTTAAA,0.112,0.0711,
ACAGACGAAGGAGCCGCAAAGAAGTTATTAAAGGACGAATAATCCCTCAATATAAATATCTCTCACTTATTTAAA,0.103,,
ACAGACGAAGGAGCCGCAAAGAAGTTATTAAAGGAGGAATAATCCCTCAATATAAATATCTCTCACTTATTTAAA,0.25,,
ACAGACGAAGGAGCCGCAAAGAAGTTATTAAAGGATAAATAAACCCTCAATATAAATATCTCTCACTTATTTAAA,0.128,,
ACAGACGAAGGAGCCGCAAAGAAGTTATTAAAGGATAAATAATCCCTCAATATAAATATCTCTCACTTATTTAAA,0.139,0.108,
ACAGACGAAGGAGCCGCAAAGAAGTTATTAAAGGATAAATAATCTCTCAATATAAATATCTCTCACTTATTTAAA,0.112,,
ACAGACGAAGGAGCCGCAAAGAAGTTATTAAAGGATCAATAATCCCTCAATATAAATATCTCTCACTTATTTAAA,0.115,,
ACAGACGAAGGAGCCGCAAAGAAGTTATTAAAGGATGAAAAATCCCTCAATATAAATATCTCTCACTTATTTAAA,0.183,0.104,
ACAGACGAAGGAGCCGCAAAGAAGTTATTAAAGGATGAACAATCCCTCAATATAAATATCTCTCACTTATTTAAA,0.207,0.0976,
ACAGACGAAGGAGCCGCAAAGAAGTTATTAAAGGATGAAGAATCCCTCAATATAAATATCTCTCACTTATTTAAA,0.232,,
ACAGACGAAGGAGCCGCAAAGAAGTTATTAAAGGATGAATAAACCCTCAATATAAATATCTCTCACTTATTTAAA,0.101,0.115,
ACAGACGAAGGAGCCGCAAAGAAGTTATTAAAGGATGAATAACCCCTCAATATAAATATCTCTCACTTATTTAAA,0.108,0.105,
ACAGACGAAGGAGCCGCAAAGAAGTTATTAAAGGATGAATAATACCTCAATATAAATATCTCTCACTTATTTAAA,0.121,0.0942,0.108
ACAGACGAAGGAGCCGCAAAGAAGTTATTAAAGGATGAATAATCACTCAATATAAATATCTCTCACTTATTTAAA,0.14,0.0796,
ACAGACGAAGGAGCCGCAAAGAAGTTATTAAAGGATGAATAATCCATCAATATAAATATCTCTCACTTATTTAAA,0.178,0.141,
ACAGACGAAGGAGCCGCAAAGAAGTTATTAAAGGATGAATAATCCCACAATATAAATATCTCTCACTTATTTAAA,0.173,0.113,
ACAGACGAAGGAGCCGCAAAGAAGTTATTAAAGGATGAATAATCCCCCAATATAAATATCTCTCACTTATTTAAA,0.156,0.152,
ACAGACGAAGGAGCCGCAAAGAAGTTATTAAAGGATGAATAATCCCCTCAATATAAATATCTCTCACTTATTTAA,0.159,,
ACAGACGAAGGAGCCGCAAAGAAGTTATTAAAGGATGAATAATCCCGCAATATAAATATCTCTCACTTATTTAAA,0.219,,
ACAGACGAAGGAGCCGCAAAGAAGTTATTAAAGGATGAATAATCCCTAAATATAAATATCTCTCACTTATTTAAA,0.342,0.232,
ACAGACGAAGGAGCCGCAAAGAAGTTATTAAAGGATGAATAATCCCTCAAAATAAATATCTCTCACTTATTTAAA,0.152,0.148,
ACAGACGAAGGAGCCGCAAAGAAGTTATTAAAGGATGAATAATCCCTCAACATAAATATCTCTCACTTATTTAAA,0.265,,

Sequence,cleaved RNA product abundance [1],cleaved RNA product abundance [2],cleaved RNA product abundance [3]
ACAGACGAAGGAGCCGCAAAGAAGTTATTAAAGGATGAATAATCCCTCAATACAAATATCTCTCACTTATTTAAA,0.0875,0.126,
ACAGACGAAGGAGCCGCAAAGAAGTTATTAAAGGATGAATAATCCCTCAATAGAAATATCTCTCACTTATTTAAA,0.107,0.111,
ACAGACGAAGGAGCCGCAAAGAAGTTATTAAAGGATGAATAATCCCTCAATATAAAAATCTCTCACTTATTTAAA,0.244,0.147,
ACAGACGAAGGAGCCGCAAAGAAGTTATTAAAGGATGAATAATCCCTCAATATAAACATCTCTCACTTATTTAAA,0.206,,
ACAGACGAAGGAGCCGCAAAGAAGTTATTAAAGGATGAATAATCCCTCAATATAAATAACTCTCACTTATTTAAA,0.229,0.157,
ACAGACGAAGGAGCCGCAAAGAAGTTATTAAAGGATGAATAATCCCTCAATATAAATACCTCTCACTTATTTAAA,0.13,,
ACAGACGAAGGAGCCGCAAAGAAGTTATTAAAGGATGAATAATCCCTCAATATAAATAGCTCTCACTTATTTAAA,0.176,,
ACAGACGAAGGAGCCGCAAAGAAGTTATTAAAGGATGAATAATCCCTCAATATAAATATATCTCACTTATTTAAA,0.259,,
ACAGACGAAGGAGCCGCAAAGAAGTTATTAAAGGATGAATAATCCCTCAATATAAATATCTCTCACTTATTTAAA,0.211,0.162,0.242
ACAGACGAAGGAGCCGCAAAGAAGTTATTAAAGGATGAATAATCCCTCAATATAAATATTTCTCACTTATTTAAA,0.247,,
ACAGACGAAGGAGCCGCAAAGAAGTTATTAAAGGATGAATAATCCCTCAATATAAATCTCTCTCACTTATTTAAA,0.208,,
ACAGACGAAGGAGCCGCAAAGAAGTTATTAAAGGATGAATAATCCCTCAATATAAATGTCTCTCACTTATTTAAA,0.155,0.136,
ACAGACGAAGGAGCCGCAAAGAAGTTATTAAAGGATGAATAATCCCTCAATATAATTATCTCTCACTTATTTAAA,0.161,,
ACAGACGAAGGAGCCGCAAAGAAGTTATTAAAGGATGAATAATCCCTCAATATACATATCTCTCACTTATTTAAA,0.17,,0.136
ACAGACGAAGGAGCCGCAAAGAAGTTATTAAAGGATGAATAATCCCTCAATATAGATATCTCTCACTTATTTAAA,0.0996,,
ACAGACGAAGGAGCCGCAAAGAAGTTATTAAAGGATGAATAATCCCTCAATATATATATCTCTCACTTATTTAAA,0.16,,
ACAGACGAAGGAGCCGCAAAGAAGTTATTAAAGGATGAATAATCCCTCAATATGAATATCTCTCACTTATTTAAA,0.0586,0.094,
ACAGACGAAGGAGCCGCAAAGAAGTTATTAAAGGATGAATAATCCCTCAATATTAATATCTCTCACTTATTTAAA,0.0494,,
ACAGACGAAGGAGCCGCAAAGAAGTTATTAAAGGATGAATAATCCCTCAATGTAAATATCTCTCACTTATTTAAA,0.0731,0.0901,
ACAGACGAAGGAGCCGCAAAGAAGTTATTAAAGGATGAATAATCCCTCAATTTAAATATCTCTCACTTATTTAAA,0.0949,0.088,
ACAGACGAAGGAGCCGCAAAGAAGTTATTAAAGGATGAATAATCCCTCACTATAAATATCTCTCACTTATTTAAA,0.152,0.113,
ACAGACGAAGGAGCCGCAAAGAAGTTATTAAAGGATGAATAATCCCTCAGTATAAATATCTCTCACTTATTTAAA,0.122,,
ACAGACGAAGGAGCCGCAAAGAAGTTATTAAAGGATGAATAATCCCTCATTATAAATATCTCTCACTTATTTAAA,0.245,,
ACAGACGAAGGAGCCGCAAAGAAGTTATTAAAGGATGAATAATCCCTCCATATAAATATCTCTCACTTATTTAAA,0.0862,,
ACAGACGAAGGAGCCGCAAAGAAGTTATTAAAGGATGAATAATCCCTCCTTATAAATATCTCTCACTTATTTAAA,0.0791,,
